According to IntAct's records for PubMed 23825108:

B1: Cyanocobalamin reductase / alkylcobalamin dealkylase (Homo sapiens), Q9Y4U1 (parent)
chain: MEPKVAELKQKIEDTLCPFGFEVYPFQVAWYNELLPPAFHLPLPGPTLAFLVLSTPAMFDRALKPFLQSCHLRMLTDPVDQCVAYHLGRVRESLPELQIEIIADYEVHPNRRPKILAQTAAHVAGAAYYYQRQDVEADPWGNQRISGVCIHPRFGGWFAIRGVVLLPGIEVPDLPPRKPHDCVPTRADRIALLEGFNFHWRDWTYRDAVTPQERYSEEQKAYFSTPPAQRLALLGLAQPSEKPSSPSPDLPFTTPAPKKPGNPSRARSWLSPRVSPPASPGP

Variants of: B1
Settings: with meth_human MTR

Variant | effect of a mutation on the interaction
R161Q | decreasing interaction strength
R206W | decreasing interaction strength
